Experimental data reported in US20120263722A1 (AbbVie / Abbott, published 2012).

Legend:
[1] = molecular target: T1, Recombinant Human VEGF 165 (human, UniProt P15692-4 27-191); test: SPR (BIACORE), N-terminal variable domain to target antigen
T1 construct: Bought reagent used in the Biacore analyses; also called vascular endothelial growth factor
Experimental: (§1) The BIACORE assay (Biacore, Inc, Piscataway, N.J.) determines the affinity of antibodies or DVD-Ig with kinetic measurements of on-rate and off-rate constants. Binding of antibodies or DVD-Ig to a target antigen (for example, a purified recombinant target antigen) was determined by surface plasmon resonance-based measurements with a Biacore® 1000 or 3000 instrument (Biacore® AB. Uppsala, Sweden) using running HBS-EP (10 mM HEPES [pH 7.4], 150 mM NaCl, 3 mM EDTA, and 0.005% surfactant P20) at 25° C. All chemicals were obtained from Biacore® AB (Uppsala, Sweden) or otherwise from a different source as described in the text.
(§2) For example, approximately 5000 RU of goat anti-mouse IgG, (Fcγ), fragment specific polyclonal antibody (Pierce Biotechnology Inc, Rockford, Ill.) diluted in 10 mM sodium acetate (pH 4.5) is directly immobilized across a CMS research grade biosensor chip using a standard amine coupling kit according to manufacturer's instructions and procedures at 25 μg/ml. Unreacted moieties on the biosensor surface are blocked with ethanolamine. Modified carboxymethyl dextran surface in flowcell 2 and 4 is used as a reaction surface. Unmodified carboxymethyl dextran without goat anti-mouse. IgG in flow cell 1 and 3 is used as the reference surface. For kinetic analysis, rate equations derived from the 1:1 Langmuir binding model are fitted simultaneously to association and dissociation phases of all eight injections (using global fit analysis) with the use of Biaevaluation 4.0.1 software. Purified antibodies or DVD-Ig are diluted in HEPES-buffered saline for capture across goat anti-mouse IgG specific reaction surfaces. Antibodies or DVD-Ig, to be captured as a ligand (25 μg/ml) are injected over reaction matrices at a flow rate of 5 μl/min. The association and dissociation rate constants, kₒₙ(M⁻¹s⁻¹) and koff (s⁻¹) are determined under a continuous flow rate of 25 μl/min. Rate constants are derived by making kinetic binding measurements at different antigen concentrations ranging from 10-200 nM. The equilibrium dissociation constant (M) of the reaction between antibodies or DVD-Igs and the target antigen is then calculated from the kinetic rate constants by the following formula: KD=koff/Kₒₙ. Binding is recorded as a function of time and kinetic rate constants are calculated.

ErbB3 = molecular target: T2, ErbB3 (UniProt P21860 20-643, limits assumed); test: as above
T2 construct: also called v-erb-b2 avian erythroblastic leukemia viral oncogene homolog 3
Experimental: as §1, §2

[2] = molecular target: T3, Recombinant Human MSP R/RON (human, UniProt Q04912 25-571, limits assumed); test: as above
T3 construct: Bought reagent used in the Biacore analyses; also called macrophage stimulating protein receptor tyrosine kinase
Experimental: as §1, §2

Recombinant Human PIGF = molecular target: T4, Recombinant Human PIGF (human, UniProt P49763-2 21-149, limits assumed); test: as above
T4 construct: Bought reagent used in the Biacore analyses; also called PlGF; placental growth factor
T4 sequence (looked up): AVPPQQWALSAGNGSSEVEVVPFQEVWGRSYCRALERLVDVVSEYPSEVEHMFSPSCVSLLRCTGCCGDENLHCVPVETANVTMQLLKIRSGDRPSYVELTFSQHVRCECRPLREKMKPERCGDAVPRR
Experimental: as §1, §2

Recombinant Human DLL4 = molecular target: T5, Recombinant Human DLL4 (human, UniProt Q9NR61 27-524); test: as above
T5 construct: Bought reagent used in the Biacore analyses; also called Delta-like ligand 4
Experimental: as §1, §2

EGFR on the cell surface = molecular target: T6, EGFR on the cell surface (human, UniProt P00533 25-1210); test: flow cytometry on cells carrying the target, antibody or DVD-Ig at 2 ug/mL
T6 construct: whole, on cells; also called epidermal growth factor receptor
Experimental: Binding of monoclonal antibodies to the surface of human tumor cell fines was assessed by flow cytometry. For example, stable cell lines overexpressing a cell-surface antigen of interest or human tumor cell lines were harvested from tissue culture flasks and resuspended in phosphate buffered saline (PBS) containing 5% fetal bovine serum (PBS/FBS). Prior to staining, human tumor cells were incubated on ice with (100 μl) human IgG at 5 μg/ml in PBS/FCS. 1-5×10⁵ cells were incubated with antibody or DVD-Ig (2 μg/mL) in PBS/FBS for 30-60 minutes on ice. […] After 30 minutes incubation on ice, cells were washed twice and resuspended in PBS/PBS. Fluorescence was measured using a Becton Dickinson FACSCalibur (Becton Dickinson, San Jose, Calif.).
The geometric mean is the n root of the multiplication product of n fluorescent signals (a1×a2×a3 . . . an). With log-transformed data the geometric mean is used to normalize the weighting of the data distribution.

T1 sequence (P15692 other isoform, or with tags, fused parts or gaps limits assumed): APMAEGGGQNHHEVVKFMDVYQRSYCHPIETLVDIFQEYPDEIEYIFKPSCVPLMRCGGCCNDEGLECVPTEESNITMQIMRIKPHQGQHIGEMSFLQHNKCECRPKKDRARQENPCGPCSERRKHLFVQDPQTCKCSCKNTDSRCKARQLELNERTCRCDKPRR
T5 sequence (Q9NR61 27-524 limits assumed): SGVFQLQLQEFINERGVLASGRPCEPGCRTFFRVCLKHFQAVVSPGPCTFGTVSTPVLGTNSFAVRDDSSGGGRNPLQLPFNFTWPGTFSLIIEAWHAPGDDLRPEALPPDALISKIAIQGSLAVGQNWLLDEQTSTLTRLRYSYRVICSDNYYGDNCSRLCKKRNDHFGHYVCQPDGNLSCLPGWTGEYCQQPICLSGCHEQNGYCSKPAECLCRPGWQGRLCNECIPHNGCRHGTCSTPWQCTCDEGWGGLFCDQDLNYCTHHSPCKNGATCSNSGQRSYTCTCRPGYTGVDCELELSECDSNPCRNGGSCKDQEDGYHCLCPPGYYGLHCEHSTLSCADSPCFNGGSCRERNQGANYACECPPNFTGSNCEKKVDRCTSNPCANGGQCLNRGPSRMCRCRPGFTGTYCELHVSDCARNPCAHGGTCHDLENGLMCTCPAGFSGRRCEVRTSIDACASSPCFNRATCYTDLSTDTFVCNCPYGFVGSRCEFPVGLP

B1: DVD1865 (bispecific antibody, human IgG1, kappa)
heavy: not shown
light: DIQMTQSPSSLSASVGDRVTITCSASQDISNYLNWYQQKPGKAPKVLIYFTSSLHSGVPSRFSGSGSGTDFTLTISSLQPEDFATYYCQQYSTVPWTFGQGTKVEIKRTVAAPQIVLIQSPAIMSASPGEKVTMTCSASSSVSYMYWYQQKPGSSPRLLIYDTSNLASGVPVRFSGSGSGTSYSLTISRMEAEDAATYYCQQWSGYPYTFGGGTKLEIKRTVAAPSVFIFPPSDEQLKSGTASVVCLLNNFYPREAKVQWKVDNALQSGNSQESVTEQDSKDSTYSLSSTLTLSKADYEKHKVYACEVTHQGLSSPVTKSFNRGEC
notes: also called DVD1865H; DVD1865L
Kd [1]: < 0.002 nM | koff [1]: < 1e-06 s⁻¹ | kon [1]: 640000 M⁻¹ s⁻¹

B2: DVD1899 (bispecific antibody, human IgG1, kappa)
heavy: not shown
light: QSALTQPASVSGSPGQSITISCTGTSSDVGSYNVVSWYQQHPGKAPKLIIYEVSQRPSGVSNRFSGSKSGNTASLTISGLQTEDEADYYCCSYAGSSIFVIFGGGTKVTVLGQPKAAPQIVLIQSPAIMSASPGEKVTMTCSASSSVSYMYWYQQKPGSSPRLLIYDTSNLASGVPVRFSGSGSGTSYSLTISRMEAEDAATYYCQQWSGYPYTFGGGTKLEIKRTVAAPSVFIFPPSDEQLKSGTASVVCLLNNFYPREAKVQWKVDNALQSGNSQESVTEQDSKDSTYSLSSTLTLSKADYEKHKVYACEVTHQGLSSPVTKSFNRGEC
notes: also called DVD1899H; DVD1899L
Kd (ErbB3): 6.7 nM | koff (ErbB3): 0.00026 s⁻¹ | kon (ErbB3): 38000 M⁻¹ s⁻¹

B3: DVD1871 (bispecific antibody, human IgG1, kappa)
heavy: not shown
light: QAVLTQPSSLSAPPGASASLTCTLRSGFNVDSYRISWYQQKPGSPPQYLLRYKSDSDKQQGSGVPSRFSGSKDASANAGILLISGLQSEDEADYYCMIWHSSAWVFGGGTKLTVLRTVAAPQIVLIQSPAIMSASPGEKVTMTCSASSSVSYMYWYQQKPGSSPRLLIYDTSNLASGVPVRFSGSGSGTSYSLTISRMEAEDAATYYCQQWSGYPYTFGGGTKLEIKRTVAAPSVFIFPPSDEQLKSGTASVVCLLNNFYPREAKVQWKVDNALQSGNSQESVTEQDSKDSTYSLSSTLTLSKADYEKHKVYACEVTHQGLSSPVTKSFNRGEC
notes: also called DVD1871H; DVD1871L
Kd [2]: > 1 nM | koff [2]: > 0.01 s⁻¹ | kon [2]: > 1e+07 M⁻¹ s⁻¹

B4: DVD1857 (bispecific antibody, human IgG1, kappa)
heavy: not shown
light: DIQMTQSPSSLSASVGDRVTITCQASQDITNYLNWYQQKPGKAPKLLIYDASNLETGVPSRFSGSGSGTDFTFTISSLQPEDIATYNCQQCENFPITFGQGTRLEIKRTVAAPQIVLIQSPAIMSASPGEKVTMTCSASSSVSYMYWYQQKPGSSPRLLIYDTSNLASGVPVRFSGSGSGTSYSLTISRMEAEDAATYYCQQWSGYPYTFGGGTKLEIKRTVAAPSVFIFPPSDEQLKSGTASVVCLLNNFYPREAKVQWKVDNALQSGNSQESVTEQDSKDSTYSLSSTLTLSKADYEKHKVYACEVTHQGLSSPVTKSFNRGEC
notes: also called DVD1857H; DVD1857L
Kd (ErbB3): 0.12 nM | koff (ErbB3): 0.00015 s⁻¹ | kon (ErbB3): 1.2e+06 M⁻¹ s⁻¹

B5: DVD1901 (bispecific antibody, human IgG1, kappa)
heavy: not shown
light: DIQMTQSPSSLSASVGDRVTITCRASQDVSTAVAWYQQKPGKAPKLLIYSASFLYSGVPSRFSGSGSGTDFTLTISSLQPEDFATYYCQQSYTTPPTFGQGTKVEIKRTVAAPQIVLIQSPAIMSASPGEKVTMTCSASSSVSYMYWYQQKPGSSPRLLIYDTSNLASGVPVRFSGSGSGTSYSLTISRMEAEDAATYYCQQWSGYPYTFGGGTKLEIKRTVAAPSVFIFPPSDEQLKSGTASVVCLLNNFYPREAKVQWKVDNALQSGNSQESVTEQDSKDSTYSLSSTLTLSKADYEKHKVYACEVTHQGLSSPVTKSFNRGEC
notes: also called DVD1901H; DVD1901L
Kd [1]: 0.16 nM | koff [1]: 9.3e-05 s⁻¹ | kon [1]: 580000 M⁻¹ s⁻¹

B6: DVD1869 (bispecific antibody, human IgG1, kappa)
heavy: not shown
light: DIVLTQSPDSLAVSLGERVTMNCKSSQSLLNSGMRKSFLAWYQQKPGQSPKLLIYWASTRESGVPDRFTGSGSGTDFTLTISSVQAEDVAVYYCKQSYHLFTFGSGTKLEIKRTVAAPQIVLIQSPAIMSASPGEKVTMTCSASSSVSYMYWYQQKPGSSPRLLIYDTSNLASGVPVRFSGSGSGTSYSLTISRMEAEDAATYYCQQWSGYPYTFGGGTKLEIKRTVAAPSVFIFPPSDEQLKSGTASVVCLLNNFYPREAKVQWKVDNALQSGNSQESVTEQDSKDSTYSLSSTLTLSKADYEKHKVYACEVTHQGLSSPVTKSFNRGEC
notes: Outer domain anti-PlGF (AB047), inner domain anti-IL-6 (AB040); also called DVD1869H; DVD1869L
Kd (Recombinant Human PIGF): 0.02 nM | koff (Recombinant Human PIGF): 0.00011 s⁻¹ | kon (Recombinant Human PIGF): 5.6e+06 M⁻¹ s⁻¹

B7: DVD1867 (bispecific antibody, human IgG1, kappa)
heavy: not shown
light: DIQMTQSPSSLSASVGDRVTITCRASQDVSTAVAWYQQKPGKAPKLLIYSASFLYSGVPSRFSGSGSGTDFTLTISSLQPEDFATTYYCQQSYTGTVTFGQGTKVEIKRTVAAPQIVLIQSPAIMSASPGEKVTMTCSASSSVSYMYWYQQKPGSSPRLLIYDTSNLASGVPVRFSGSGSGTSYSLTISRMEAEDAATYYCQQWSGYPYTFGGGTKLEIKRTVAAPSVFIFPPSDEQLKSGTASVVCLLNNFYPREAKVQWKVDNALQSGNSQESVTEQDSKDSTYSLSSTLTLSKADYEKHKVYACEVTHQGLSSPVTKSFNRGEC
notes: Outer domain anti-DLL4 (AB015), inner domain anti-IL-6 (AB040); also called DVD1867H; DVD1867L
Kd (Recombinant Human DLL4): 0.49 nM | koff (Recombinant Human DLL4): 0.00022 s⁻¹ | kon (Recombinant Human DLL4): 460000 M⁻¹ s⁻¹

B8: DVD1853 (bispecific antibody, human IgG1, kappa)
heavy: not shown
light: DVVMTQSPLSLPVTPGEPASISCRSSQSLLHSNGFNYVDWYLQKPGQSPHLLIYFGSYRASGVPDRFSGSGSGTDFTLKISRVEAEDVGVYYCMQALQTPPWTFGQGTKVEIRRTVAAPQIVLIQSPAIMSASPGEKVTMTCSASSSVSYMYWYQQKPGSSPRLLIYDTSNLASGVPVRFSGSGSGTSYSLTISRMEAEDAATYYCQQWSGYPYTFGGGTKLEIKRTVAAPSVFIFPPSDEQLKSGTASVVCLLNNFYPREAKVQWKVDNALQSGNSQESVTEQDSKDSTYSLSSTLTLSKADYEKHKVYACEVTHQGLSSPVTKSFNRGEC
notes: also called DVD1853H; DVD1853L
Kd [2]: 15 nM | koff [2]: 0.00085 s⁻¹ | kon [2]: 58000 M⁻¹ s⁻¹

B9: DVD1875 (bispecific antibody, human IgG1, kappa)
heavy: not shown
light: DIQMTQSPSSLSASVGDRVTITCQASQDISNYLNWYQQKPGKAPKLLIYDASNLETGVPSRFSGSGSGTDFTFTISSLQPEDIATYFCQHFDHLPLAFGGGTKVEIKRTVAAPQIVLIQSPAIMSASPGEKVTMTCSASSSVSYMYWYQQKPGSSPRLLIYDTSNLASGVPVRFSGSGSGTSYSLTISRMEAEDAATYYCQQWSGYPYTFGGGTKLEIKRTVAAPSVFIFPPSDEQLKSGTASVVCLLNNFYPREAKVQWKVDNALQSGNSQESVTEQDSKDSTYSLSSTLTLSKADYEKHKVYACEVTHQGLSSPVTKSFNRGEC
notes: also called DVD1875H; DVD1875L
N-Terminal VD GEO MEAN (FACS geometric mean) (EGFR on the cell surface): 717

B10: DVD1855 (bispecific antibody, human IgG1, kappa)
heavy: not shown
light: DIEMTQSPDSLAVSLGERATINCRSSQSVLYSSSNRNYLAWYQQNPGQPPKLLIYWASTRESGVPDRFSGSGSGTDFTLTISSLQAEDVAVYYCQQYYSTPRTFGQGTKVEIKRTVAAPQIVLIQSPAIMSASPGEKVTMTCSASSSVSYMYWYQQKPGSSPRLLIYDTSNLASGVPVRFSGSGSGTSYSLTISRMEAEDAATYYCQQWSGYPYTFGGGTKLEIKRTVAAPSVFIFPPSDEQLKSGTASVVCLLNNFYPREAKVQWKVDNALQSGNSQESVTEQDSKDSTYSLSSTLTLSKADYEKHKVYACEVTHQGLSSPVTKSFNRGEC
notes: also called DVD1855H; DVD1855L
Kd (ErbB3): 3.7 nM | koff (ErbB3): 0.00038 s⁻¹ | kon (ErbB3): 100000 M⁻¹ s⁻¹

B11: DVD1907 (bispecific antibody, human IgG1, kappa)
heavy: not shown
light: DIQMTQSPSSMSVSVGDRVTITCHSSQDINSNIGWLQQKPGKSFKGLIYHGTNLDDGVPSRFSGSGSGTDYTLTISSLQPEDFATYYCVQYAQFPWTFGGGTKLEIKRTVAAPQIVLIQSPAIMSASPGEKVTMTCSASSSVSYMYWYQQKPGSSPRLLIYDTSNLASGVPVRFSGSGSGTSYSLTISRMEAEDAATYYCQQWSGYPYTFGGGTKLEIKRTVAAPSVFIFPPSDEQLKSGTASVVCLLNNFYPREAKVQWKVDNALQSGNSQESVTEQDSKDSTYSLSSTLTLSKADYEKHKVYACEVTHQGLSSPVTKSFNRGEC
notes: also called DVD1907H; DVD1907L
N-Terminal VD GEO MEAN (FACS geometric mean) (EGFR on the cell surface): 23.5
